# Data taken from a protein production outcome set (Wang et al. 2014).
# Experiment: label from the status in PepcDB records
# 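Note: failed if final PepcDB status was selected cloned or expressed and not failed if soluble or beyond.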
row,Sequence,protein production
1,MRGYYDEISFDVNTTAKKMHLFLMRSIASYDVTPEQWSVLEGIEANEPISQKEIALWTKKDTPTVNRIVDVLLRKELIVREISTEDRRISLLSLTDKGRKETTELRDIVEASCEKMFAGVTRTDLEQFTAILKNISTNIE,not failed
2,MEVVRIPEFKEKTAPGAYYQQPAIDGSRPGRFYANLFDIKATPKYGMRTLAYHEGIPGHHFQVAVAMELEGQPLIRKMAPFTAYIEGWALYSERVAWELGFQQDPFDNIGRLQAELFRAVRLVVDTGIHHSRWTREQAIDYMKKNTGMSDRDVTAEIERYIVMPGQATAYKVGMMKILELREKAKQALGDKFDLRDFHDVVLKNGAVPLDILEKLVDRYIADKR,failed
3,MFALCDVNAFYASCETVFRPDLWGKPVVVLSNNDGCVIARNAEAKALGVKMGDPWFKQKDLFRRCGVVCFSSNYELYADMSNRVMSTLEELSPRVEIYSIDEAFCDLTGVRNCRDLTDFGREIRATVLQRTHLTVGVGIAQTKTLAKLANHAAKKWQRQTGGVVDLSNLERQRKLMSALPVDDVWGIGRRISKKLDAMGIKTVLDLADTDIRFIRKHFNVVLERTVRELRGEPCLQLEEFAPTKQEIICSRSFGERITDYPSMRQAICSYAARAAEKLRSEHQYCRFISTFIKTSPFALNEPYYGNSASVKLLTPTQDSRDIINAATRSLDAIWQAGHRYQKAGVMLGDFFSQGVAQLNLFDDNAPRPGSEQLMTVMDTLNAKEGRGTLYFAGQGIQQQWQMKRAMLSPRYTTRSSDLLRVK,failed
4,MMDNDNSLNKRPTFKRALRNISMTSIFITMMLIWLLLSVTSVLTLKQYAQKNLALTAATMTYSLEAAVVFADGPAATETLAALGQQGQFSTAEVRDKQQNILASWHYTRKDPGDTFSNFISHWLFPAPIIQPIRHNGETIGEVRLTARDSSISHFIWFSLAVLTGCILLASGIAITLTRHLHNGLVEALKNITDVVHDVRSNRNFSRRVSEERIAEFHRFALDFNSLLDEMEEWQLRLQAKNAQLLRTALHDPLTGLANRAAFRSGINTLMNNSDARKTSALLFLDGDNFKYINDTWGHATGDRVLIEIAKRLAEFGGLRHKAYRLGGDEFAMVLYDVQSESEVQQICSALTQIFNLPFDLHNGHQTTMTLSIGYAMTIEHASAEKLQELADHNMYQAKHQRAEKLVR,failed
5,MSEPVFPTPEAAEDAFYAAFEARSLDDMMAVWARDDHVACIHPLAAPLNGRAAVAAGWRSMFGAAGRFRLQVKAVHEIRQADHVIRIVDEFLTIGDETAPRPAILATNVYRREADGWRMVLHHASPLQVGAKAGADTPPVVFH,not failed
6,MHFRLILSMIVVTHTAVVQVLIHMEWIADPSIWAGLVTLVVIELVLGIDNLVFIAILAEKLPPAQRDRARITGLMLAMVMRLLLLASISWLVTLTKPLIVFHDFSFSARDLIMLFGGLFLLFKATVELNERLEGKDSDNPTQRKGAKFWAVVAQIVVLDAIFSLDSVITAVGMVDHLAVMMAAVVIAISLMLMASKALTRFVNSHPTIVILCLSFLLMIGFSLIAEGFSFIIPKGYLYAAIGFSVMIEALNQLAQFNRRRFLSANMTLRQRTTEAVMNLLSGQKEKAELDADTASLVADQDQHPLFNPQERLMIERVLNLNQRSVSSIMTSRHDIERINLSAPEEEIRSLVEKNQHTRLVVTGGKDNEDLLGVVHVIDLLQQSLRQEPLDLQALVRQPLVFPEGLPLLSALEQFRQARTHFAFVVDEFGSVEGIVTLSDVMETIAGNLPNEVEEIDARHDIQHHQDGSWTVNGHMPLEDLVQYVPLPLDDKREYHTVAGLLMEYLQHVPQVGETIEIDGYTLRTLQVDSHRVQKVQIVPPVKQDELDYEV,failed
7,MVTNQKHLEDFGYLKMTQKEGTILPEEYVSIIQHPKGGPKSVTLRENKVSGLKENFIHYLTDTEPGSSGSPVFNDQWTLVALHHSGVPNPEIKDLEHHHHHH,not failed
8,MKTIRAILNGKKAGNPELRDAIMKMRDRGVDVQVRVTWESQDMPRLVKEAVTDGIERIVVAGGDGTVNEAASALIHIDHESRPELAIIPLGTANDFATANHIPDSIADALTLAVEGQALSVDCVKANDRCFINVAAAGFGAEVTAETPVELKNFLGGGAYTLTGVVKALGFKPYDGSITIEGGRYDGEMLLGAFCNSRLAGGGQQLAPNAMIDDGLMDLTLVRPFLPHELPKVIEEINNPSEKGEFVKHTRASWLEIDFPNPLPLNLDGEPYHSRKIRFEVQPKSLKLVLPKDCPCVTH,failed
9,MNLRLTASILGKLLMLFSFSFILPLIAAHVFEEPYHPFLIPAALSLLVGAVLGYGIKTESEFDSLRHKESFAIVALIWLFMSIFGSIPYIIFGISPVDAFFESMSGFTTTGASVLTPEELPKSLLLWRSLTQWIGGMGIIVLFLAIFPNVAKRSTVLFQAEYPGVSLSKLKPRIRDTALSLYKVYLLLTIAEVALLYALGLSLFDAINHTFTTLSTGGYSTHSESIAFFKDVRVEAVVAFFAFLGGANFALIYFLLSGKPVIFRNTEFRAYVCFLALASVVIAAVNLDRYSIFESLRYSIFQAVSIMTTTGFTTADFDAWSDSAKLILVVLMFIGGSSGSTGGGIKVIRIYLLIKYAVHQILRAAEPRTVRAVKFEGRAIKKEILDDIAAFFVLYILIFAVSSILVSLSGYDIVTSISATAATLGNVGPGLGLAGAAENYASFPSLTKILLAVNMWIGRLEIFTVVSLFIPTFWRERW,failed
10,MKAVLFDLDGTLIDTAADFIRIIQEMCREEQREVVDADLIRTQVSEGARAMVKLVYPELAVDDAVFLTHRQRFLDRYEQNIVVDTDLFKGMYPLLEMLESQQIPWGIVTNKPRHLTELLLERLNLTERCAVLVCPEDVQRTKPDPEPMFLAATQLHIAPEQIIYVGDHPRDIDAGRAAHMYTILAAYGYLPLQHKDNLNAWQADVIVQHVTELQKILSQQLHITPLNQDTMLQTS,failed
11,MIRHLLVAHDLTPEADVALARAAQLARQHDARVSLLHVYDPGLSASAVKTVSAMLQLKRKEAGLDEDSAIHLFRGQPIDGILQQTRALEPDLLLMGAHHQKTFERFGNTTLDQVVRRSRVPVLLAVREADEPYRQALSALDFSQCACTALRQAYRLLPVEADLHALHVFESPDDGVLGLPRQNAAHLATQAGLIEQLLSDEQERLPGVGPQLSHEVVPGVLPYSLDAALKQRQPELLALGRHSRNALMQALLGNLAQRYLRQPSCDVLVTS,failed
12,MSQQKHADQDYALETVPSESKKGFLPMFAIMLGFTFFSASMWAGGTIGTGLKFQTFLLAVLMGNLLLGLYTGALAYIGSSTGLSTHLLARYSFGEKGSYLASFILAITQVGWFGVGVAMFSLPVHYATGIDLNILLLLSGILMTTTAYFGIKSLTVLSMISVPAITLLGIYSVTGAVNSIGGISELFAIEPANNLGLAVGLSLCIGSFISGGTLTPDFSRFSKSKSIGVISTFIAFFIGNSLMFIFGAVGASTLGQSDISEVMLKQGLIIPAIIILGLNIWTTNDNALYASGLGFSNITKIPKKHVVIFNGLIGTLGALVLYNNFVGWLTLLSSIIPSIGGIIISDYFINKRQKYASLENIKVKKVHWNAVIAWVLGVFASQFLPGISPINAVFGSAIIYIVLETLKKNNI,failed
13,MVDMDWKRKMVSSDLPNSPKLSSKLHVTIPSPFKIVPVSSPISCSAPALCSAYELYLRLPELRKLWSSRDFPQWTSEPILKPALQALEISFRLVFAVCSDTRPYINHREWNRRLDSLITKQIQLVAAICEDEEEEGISAEAPVGGGRSSLSLLPQLATWRRSEALGKKILYTIDNEMSRCKYTLGLGEQNIAGKPNLRYDAICRPNEIYSLKDNPYADHIDNHENQTLYIIHQILESWIYASGNLLNRIVSSIEEEKFGKASNDVYLLEKIWKILAEIEDLHMLMDPEDFLKLKKQLQIKSTGKNDAFCFRSKGLVEMMKMSKDLRQKVPAVLAVEVDPTGGPRLQEAAMKLYARKTECDKIHLLQGMQAVEAAAKSFFFGYRQLVAAMMGSAEMNATASQESCDSLSQIFMEPTYFPSLDAAKTFLGEFWSHLG,failed
14,MSSTILVLGATGTVGRHVVDGLLAKGEAVKAASRAGKPVAAAEGVAFDYARPETFGPALEGVDRAYVLLASGYVDSKGLLLPVIEAAATRKVKVVLQSVIGVDADDSIPYRQVEIALEKSDTPYVILRPNWFSDNFHTFWKPGIDHGQIALPAAEGKSSFIDARDIAASGVAVLTSSSFDGKAFNLTGPEALSYAEAAAILSEAIGKPVTYNAVSDEAFIEMLTGAGVPAGYASFLASIFYPVRQNWTAVMTGDVETLTGKAPRSLKTYAADYAAALKA,failed
15,KIGYGKANPTTRLWVGGLGPNTSLAALAREFDRFGSIRTIDHVKGDSFAYIQYESLDAAQAACAKMRGFPLGGPDRRLRVDFAK,not failed
16,MKHLPTTLLLSTLAITLSAQAHNLVPAPKQTQSVLIKNATVHTVIQGVLTNTDVLIENGKISALGPQLSTNTTASTQVVDASGKHLYPGLIALDTSLGLVEIEMVRPTVDNAEVGDVNPQISAASAYNPDSELLPTIRYNGITHAQIVPSGDGLAGQSVVVDLDAWTIEDALQPNEGQFHVYWPQIKRMPEDEKEKAKAIEKNQQAIDKLITAFEDGYRYFLSQNAQDTDNWPNLRWQAMLPLYQGKATLFAHADSVSQIEQVIALTKKYQFKLVIVGGYDAWRLASSLREVNASVIYPHTLSLPKRKDEPVDLPFKIPSLLANAGIPYALGFSSDWNSRNLPYAAGYSAAYGVTPEQALKSVTLDAAKLLGIADLGAIAVGYQGSVVLSDGDILDPMSSKIDAIWIEGRQIDLNNRHQQLYQKYLKR,failed
17,MKQWIAALLLMLIPGVQAAKPQKVTLMVDDVPVAQVLQALAEQEKLNLVVSPDVSGTVSLHLTDVPWKQALQTVVKSAGLITRQEGNILSVHSIAWQNDNIARQEAEQARAQANLPLENRSITLQYADAGELAKAGEKLLSAKGSMTVDKRTNRLLLRDNKTALSALEQWVAQMDLPVGQVELSAHIVTINEKSLRELGVKWTLADAQHAGGVGQVTTLGSDLSVATATTHVGFNIGRINGRLLDLELSALEQKQQLDIIASPRLLASHLQPASIKQESEIPYQVSSGESGATSVEFKEAVLGMEVTPTVLQKGRIRLKLHISQNVPGQVLQQADGEVLAIDKQEIETQVEVKSGETLALGGIFTRKNKSGQDSVPLLGDIPWFGQLFRHDGKEDERRELVVFITPRLVSSELEHHHHHH,not failed
18,MMRMKVKVVVNGKEYEVEVEEVMPGKFRVTLEGETYEVETSAGFVTSPKQVQVPTPAPTPAPAPTPTPAPAPSSKTVVSENVVSAPMPGKVLRVLVRVGDRVRVGQGLLVLEAMKMENEIPSPRDGVVKRILVKEGEAVDTGQPLIELG,not failed
19,MEIRTLALKTPEGQPFTMWIYQHDQFTLFPDDRLWPLALIFPGGGFAGYSEREVEAVALKFIAKGYQAAVVKYNLTSDGPFYPTAATIGLAALSYVKRHAQELNADFDHVVVSGFSAGGHLVAVMTALGAQSEFLNNHGFEETKLVPFAQILSYPVIDLTMGFPTSQHEMMAVTTDESYWHAQELVTSQTPPTFIWATRTDELVPVVNSLVYLAALGEHNVPFESHIYAAGVHGLAFGDLADSRYHHPEDVVPRVQNWFPMALGWLRTLYASKNSTEILEHHHHHH,failed
20,MDARFLYPLESCKIIHLLRHGQALHNVEAEKDRNALLSPHLFDAPLTDHGHQQVENLRERVVSSGLLKRVELVVTSPLFRTMQTAVGVFGNEYKQSSMTSSPPILALEVARDRNGVRPPDMRRNVSEYQTLFPTIDFSQIESEEDNLWRPDVRESEEEILARGLEFMKWLWKRPEKEVAVVSHGIVLQHMLYVFANDCDLSIRHELCKRFANCEIRTVVIVDKGMASSTEN,failed
